Measured values reported in patent US20240002522A1 (INSERM INSTITUT NATIONAL DE LA SANTE ET DE LA RECHERCHE …, published 2024).

T1: human CD25 (human, UniProt P01589 22-272)
T1 construct: In the functional assays it was native on T cells or SUDHL-1 cells; also called huCD25; hCD25
T1 sequence: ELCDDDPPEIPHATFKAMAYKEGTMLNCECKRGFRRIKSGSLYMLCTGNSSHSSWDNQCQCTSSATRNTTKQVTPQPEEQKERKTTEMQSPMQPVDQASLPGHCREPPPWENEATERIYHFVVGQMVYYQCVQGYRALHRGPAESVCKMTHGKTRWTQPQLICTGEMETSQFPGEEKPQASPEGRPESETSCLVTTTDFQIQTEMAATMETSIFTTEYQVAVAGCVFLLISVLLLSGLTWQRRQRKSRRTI


Molecular target: T1, human CD25
Assay: flow cytometry on HEK293 cells transiently transfected with huCD25; 3-fold dilutions from 500 nM; detection with anti-human IgG (Fc specific) FITC

| Binder | binding result |
| --- | --- |
| B01 (antibody, V domains shown, detected with anti-human IgG (Fc specific); also called anti-CD25 antibody B01) VH: QVQLVESGGGVVQPGRSLRLSCAASGFTFSNHAMAWVRQAPGKGLEWVAVISYDGSNKYYADSVKGRFTISRDNAKSTLYLQMNSLRAEDTAVYYCTTGLNSGYDWGQGTLVTVSS VL: DIQMTQSPSSLSASVGDRVTITCRASQNISSFLNWYQQKPGEAPRRLIYGTNSLQSGVPSRFSGSGSGTDYTLTISSLQPEDFATYYCQQYNSWPWTFGQGTKLEIK | binds |
| G09 (antibody, V domains shown, detected with anti-human IgG (Fc specific); also called anti-CD25 antibody G09) VH: QVQLVESGGGVVQPGRSLRLSCAASGFTFSNHAMAWVRQAPGKGLEWVAVISYDGSNKYYRDSVKGRFTISRDNAQNTLYLQMNSLRAEDTAVYYCTTGLNSGYDWGQGTLVTVSS VL: DIQMTQSPSSLSASVGDRVTITCRASQNVSSFLNWYQQKPGEAPRRLIYGTNSLQSGVPSRFSGSGSGTDYTLTISSLQPEDFATYYCQQYNSWPWTFGQGTKLEIK | binds |
| H01 (antibody, V domains shown, detected with anti-human IgG (Fc specific); also called anti-CD25 antibody H01) VH: QVQLVESGGGVVQPGRSLRLSCAASGFTFSNHAMAWVRQAPGKGLEWVAVISYDGSNKYYADSVKGRFTISRDNSQNTLYLQMNSLRAEDTAVYYCTTGLNSGYDWGQGTLVTVSS VL: DIQMTQSPSSLSASVGDRVTITCRASQNVSSFLNWYQQKPGKAPRRLIYGTSSLQSGVPSRFSGSGSGTDYTLTISSLQPEDFATYYCQQYTSWPWTFGQGTKLEIK | binds |

Further lines, results first:

| binding result | Binder |
| --- | --- |
| binds | H07 (antibody, V domains shown, It was detected with anti-human IgG (Fc specific), and a human IgG1 isotype served as control; also called anti-CD25 antibody H07) VH: QVQLVESGGGVVQPGRSLRLSCAASGFTFSNHAMAWVRQAPGKGLEWVAVISYDGSNKYYADSVKGRFTISRDNAKNTLYLQMNSLRAEDTAVYYCTTGWNSGYDWGQGTLVTVSS VL: DIQMTQSPSSLSASVGDRVTITCRASQSVNSFLNWYQQKPGKAPRRLIYGTSSLQSGVPSRFSGSGSGTDYTLTISSLQPEDFATYYCQQYTSWPWTFGQGTKLEIK |
| binds | H02 (antibody, V domains shown, detected with anti-human IgG (Fc specific); also called anti-CD25 antibody H02) VH: QVQLVESGGGVVQPGRSLRLSCAASGFTFSNHAMAWVRQAPGKGLEWVAVISYDGSNKYYRDSVKGRFTISRDNSQSTLYLQMNSLRAEDTAVYYCTTGLNSGYDWGQGTLVTVSS VL: DIQMTQSPSSLSASVGDRVTITCRASQNVSSFLNWYQQKPGEAPRRLIYGTNSLQSGVPSRFSGSGSGTDYTLTISSLQPEDFATYYCQQYNSWPWTFGQGTKLEIK |
| binds | H08 (antibody, V domains shown, detected with anti-human IgG (Fc specific); also called anti-CD25 antibody H08) VH: QVQLVESGGGVVQPGRSLRLSCAASGFTFSNHAMAWVRQAPGKGLEWVAVISYDGSNKYYADSVKGRFTISRDNSKNTLYLQMNSLRAEDTAVYYCTTGLNSGYDWGQGTLVTVSS VL: DIQMTQSPSSLSASVGDRVTITCRASQSVSSYLNWYQQKPGKAPRRLIYGTNSLQSGVPSRFSGSGSGTDYTLTISSLQPEDFATYYCQQYTSWPWTFGQGTKLEIK |
